# Test results reported in patent US12275778 (dated 2025).
# Where a chain is given by its changes, count along the chain named.
# B1: Fab combination 21 (antibody, V domains shown)
# VH: EVQLQQSGPELVKPGASVKMSCKASGYTFTDYYMKWVKQSHGKSLEWIGDINPNNGETWYNQKFKDKATLTVDKSSSTAYMQLNSLTSEDSAVYYCATRYFDYWGQGTTLTVSS
# VL: DIVLTQSPASLAVSLGQRATISCKASQSVDYDGTSYMNWFQQKAGQPPKRLIYAASNLESGIPARFSGRGSGTDFALNIHPVEEEDAATYYCQQSNEDPYTFGGGTKLEIKR
# B2: Fab combination 12 (antibody, V domains shown)
# VH: B1 VH with Y33I, Y100V, Y103F
# VL: B1 VL
# B3: Fab combination 4 (antibody, V domains shown)
# VH: B1 VH with Y33F, Y100V, Y103F
# VL: B1 VL
# B4: Fab combination 22 (antibody, V domains shown)
# VH: B1 VH with Y100V, Y103F
# VL: B1 VL
# B5: Fab combination 2 (antibody, V domains shown)
# VH: B1 VH with Y33F, Y100V
# VL: B1 VL
# B6: Fab combination 20 (antibody, V domains shown)
# VH: B1 VH with W59F, Y103F
# VL: B1 VL
# B7: Fab combination 23 (antibody, V domains shown)
# VH: B1 VH with Y103F
# VL: B1 VL
# B8: Fab combination 5 (antibody, V domains shown)
# VH: B1 VH with Y33F, Y103F
# VL: B1 VL
# B9: Fab combination 17 (antibody, V domains shown)
# VH: B1 VH with Y100V
# VL: B1 VL
# B10: Fab combination 18 (antibody, V domains shown)
# VH: B1 VH with W59F
# VL: B1 VL
# B11: Fab combination 8 (antibody, V domains shown)
# VH: B1 VH with Y33F, W59F, Y103F
# VL: B1 VL
# B12: Fab combination 16 (antibody, V domains shown)
# VH: B1 VH with Y33I, W59F, Y103F
# VL: B1 VL
# B13: Fab combination 7 (antibody, V domains shown)
# VH: B1 VH with Y33F, W59F, Y100V, Y103F
# VL: B1 VL
# B14: Fab combination 13 (antibody, V domains shown)
# VH: B1 VH with Y33I, Y103F
# VL: B1 VL
# B15: Fab combination 11 (antibody, V domains shown)
# VH: B1 VH with Y33I
# VL: B1 VL
# B16: Fab combination 9 (antibody, V domains shown)
# VH: B1 VH with Y33I, W59F, Y100V
# VL: B1 VL
# B17: Fab combination 19 (antibody, V domains shown)
# VH: B1 VH with W59F, Y100V, Y103F
# VL: B1 VL
# B18: Fab combination 15 (antibody, V domains shown)
# VH: B1 VH with Y33I, W59F, Y100V, Y103F
# VL: B1 VL
# B19: Fab combination 3 (antibody, V domains shown)
# VH: B1 VH with Y33F
# VL: B1 VL
# B20: parental Fab (TnT M-7) (antibody, V domains shown)
# VH: B1 VH with W59F, Y100V
# VL: B1 VL
# B21: Fab combination 1 (antibody, V domains shown)
# VH: B1 VH with Y33F, W59F, Y100V
# VL: B1 VL
# Target: cardiac troponin T (recombinant human) (human)
# Test: SPR, 37C
row,Binder,Kd
1,B1,1600 pM
2,B2,320 pM
3,B3,2.7 pM
4,B4,0.0038 pM
5,B5,460 pM
6,B6,1100 pM
7,B7,1200 pM
8,B8,230 pM
9,B9,540 pM
10,B10,1600 pM
11,B11,200 pM
12,B12,3400 pM
13,B13,450 pM
14,B14,620 pM
15,B15,1000 pM
16,B16,1200 pM
17,B17,460 pM
18,B18,1100 pM
19,B19,370 pM
20,B20,580 pM
21,B21,620 pM
